Data on four molecules can be found in US20130197191A1 (published 2013).

Sequences and labels used below:
B1: β-Klotho walked dimer BK_R1c_D05 (designed binder)
chain: CAAGQFRCHNSDTCLPGAWVCDGDNDCGDNSDEASCQKRTCHSFNQFECRNGQCIPLHLVCDGVPDCGDNSDETDCGDSHILPFSTPGPST
B2: β-Klotho walked dimer BK_R1c_D22 (designed binder)
chain: CQPDEFTCSSGRCIPQPWLCDGLNDCGDGSDEPPAHCSAPASEPPGSLCRPDEFRCKNGRCIPQTWVCDGEDDCQDSSDETDCESTVRT
B3: β-Klotho walked dimer BK_R1c_D24 (designed binder)
chain: CRPDEFPCRSTGRCVPRRWVCDGVDDCGDNSDESLAHCQTPTCQPDEFTCSSGRCIPQPWLCDGLNDCGDGSDEPPAHCSAPASEPPGSL
B4: β-Klotho walked dimer BK_R1c_D18 (designed binder)
chain: CPPDEFQCRGTKKCLPLAWVCDGDNDCEDDSDEESCASAVHTCQSNEFRCRSGRCIPQHWLCDGLNDCGDGSDESQQCSAPASEPPGSL

recombinant human β-Klotho, sequence (Q86Z14 53-996): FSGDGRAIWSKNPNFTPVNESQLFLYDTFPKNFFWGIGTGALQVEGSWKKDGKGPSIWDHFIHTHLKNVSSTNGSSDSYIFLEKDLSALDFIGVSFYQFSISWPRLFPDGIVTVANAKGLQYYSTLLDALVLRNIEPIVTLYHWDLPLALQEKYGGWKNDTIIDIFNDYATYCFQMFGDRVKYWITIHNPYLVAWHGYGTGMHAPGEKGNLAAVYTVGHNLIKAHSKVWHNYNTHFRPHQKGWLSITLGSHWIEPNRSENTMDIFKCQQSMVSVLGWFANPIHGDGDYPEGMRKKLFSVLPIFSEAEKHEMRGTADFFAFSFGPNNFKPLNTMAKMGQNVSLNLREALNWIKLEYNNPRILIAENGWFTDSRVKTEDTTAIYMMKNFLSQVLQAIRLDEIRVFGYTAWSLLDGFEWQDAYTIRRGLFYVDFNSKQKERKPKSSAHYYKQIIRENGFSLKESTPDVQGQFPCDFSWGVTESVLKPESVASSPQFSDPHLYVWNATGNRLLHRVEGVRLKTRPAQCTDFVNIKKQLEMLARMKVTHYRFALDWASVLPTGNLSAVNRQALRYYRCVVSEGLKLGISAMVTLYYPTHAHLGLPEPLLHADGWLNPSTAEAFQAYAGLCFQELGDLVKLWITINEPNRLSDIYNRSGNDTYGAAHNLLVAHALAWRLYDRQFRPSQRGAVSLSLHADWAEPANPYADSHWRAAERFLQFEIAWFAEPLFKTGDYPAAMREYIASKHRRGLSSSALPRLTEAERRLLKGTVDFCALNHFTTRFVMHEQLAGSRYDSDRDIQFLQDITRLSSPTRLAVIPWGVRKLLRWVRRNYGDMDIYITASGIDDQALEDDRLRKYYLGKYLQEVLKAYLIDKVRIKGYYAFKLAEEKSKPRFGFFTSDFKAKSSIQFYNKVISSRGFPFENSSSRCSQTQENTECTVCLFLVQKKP

This experiment has as its target recombinant human β-Klotho (UniProt Q86Z14 53-996, biotinylated in the AlphaScreen assays (site not stated)). Briefly: binding EC50.
Take B1: the EC50 turned out to be 0.01 nM.

On to B2, for which the EC50 came out at 99 nM.

On to B3, for which the concentration for a half-maximal effect (EC50) turned out to be 8.52 nM.

For the molecule B4, the EC50 stood at 21.5 nM.

As usually defined, the EC50 is the concentration at which the effect is half-maximal.
